Laboratory results as given in the nanobody polyreactivity screen of Harvey et al. (2022).

Test: yeast display, Sf9 membrane polyspecificity reagent, FACS + sequencing; frameworks hold sequencing errors
How it was run: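 A nanobody's polyreactivity label depends on the gate it was sorted from. Yeast display cells were stained with 10% biotinylated, detergent-solubilized Sf9 membrane reagent for 1 hour at 4 °C, enriched on streptavidin microbeads and sorted by FACS. The low and high (top ~1%) gates were set on anti-HA fluorescence for expression and streptavidin fluorescence for reagent binding.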

Sequence | polyreactivity (PSR sort gate)
QVQLVESGGGLVQAGGSLRLSCAASGRIFKINAMGWYRQAPGKERELVAAITRSGGTTYYADSVKGRFTISRDNAKNTVYLQMNSLKPEDTAVDYCARAYSLRVVTGDYWGQGTQVTVSS | high polyreactivity
QVQLVESGGGLVQAGGSLRVSCAASGINFDYYVMGWYRQAPGKERELVAAISRSGDRTNYADSVKGRFTSSRDHEKYTVFLLMNSLKPEDTAVYYCAARVRIRGGGYDYWGQGTQVTVSS | high polyreactivity
QVQLVESVGGLVQAGGSLRLSCAASGYTFPDYAMGWYRQAPGKEREFVATISWSGTSTYYADSVKGRFTISRDNAKNTVYLQMNSLKPEDTAVDYCNASAYYPPSSSRYDYWGQGTQVTVSS | low polyreactivity
QVQLVESGGGLVKAGGSLRLSCAASGSSFSSYAMGWYREAPGKEWELVAAISGGGNTYYADSVKGRFTISSDNAKNTVYLQMNSLKPEDTAVYYCNKSRLEPEYGYWGQGTQVTVSS | low polyreactivity
QVQLVESGGGLVQAGGSLRLSCAASGFNSHFYAMGSYRQAPGKEREFVDRISYSGGSTYYADSVKGRFTISRDNAKNTVYLQMNSLKPEDTAVYFCAADKHYFRHFGSWGQGTQVTVSS | low polyreactivity
QVQLVESGGGLVQAGGSLRLSCAASGSTFYYYAMGWYRQAPGTAREWVAAISYSGGRTYYADSVKGRFTISRDHAKNTDDIQMNSLKPEYTAVYYCATGQPILALRYAYGYWGQATQVTVSS | low polyreactivity
QVQLVESGGGLVQAGGSLRLSCAASGSTFESNAMGWYRQAPGKERELVAAISRGRTNYADSVKGRFTISRDNAKNTVYLQMNSLKPEDTAVYYCAADGLSNVRQMDYWGQGTQVTVSS | low polyreactivity
QDQLVESGRGLFQAGGSLRLSCAASGSTLWANAMGWYRQAPGKERELVAAISWRGGRTYYADSVKGRFTISRDNAKNTVYLQMNSLKPEVTAVYYCNAVSYYRPRTDYWGQGTLVTVSS | high polyreactivity
QVQLVESGGGLVQAGGSLRLSCAASGSIFDPYAMGWSRQAPGKEREFVAAISYSAGSTYYADSVKGRFTISRDNAKNTVYLQMNSLKPEATAVYYCAARYTHTSPSIRSWAYYYWGQGTQVTVSS | high polyreactivity
QVHLVESGGGLVQAGGSLRLSCASTGRISTYYTMVWYRQAPGKERELVAAISWSGTSTYYADSVKGRFTISRDNAKNTVYLQMNSLKPEDTAVYYCNAYFRPRYGYWGQGTQVTVSS | high polyreactivity
QFQLVESGGGLVQAGGSLRLSCDASGSIFSYYAMGWYRQAPGKERELVAAISQSGGTTYYADSLKGRFTISRDNEKNTVYLQMNSLKPEDTAVYYCAARAQSSFDTQYYYWGQGTQVTVSS | low polyreactivity
QVQLVESGGGLVQAGGSLRLICAASRSIFEINAMGWYSQAPGKERELVADNRRGDSTNYADSVNGRFTISRDNAKNTVYLQMNSLKPEVTAVYYCAARWRRSIYGVYPQRPYDYWGQGTQVTVSS | high polyreactivity
QVQLVESGGGLVQAGGSLRLSCAASGSTFGLNAMGWYRQAPGKERELVAAITSGGTYYADSVKGRFTISRDNAKNTVYLQMNSLKPEDTAVYYCAADGTWSIYGGLYYWGQGTQVTVSS | low polyreactivity
QVQLVESGGGLVQAGGSLRLSCAASGSTFSANAMGWYRQAPGKERELVASISRGGGSTYYADSVKGRFTISRDTAKNTVYLQMNSLKPDDTAVYYCAAVYYRRISQGDTQTYYQYNYWGQVTQVTVSS | high polyreactivity
QVQLVESGGGLVQAGGSLRLSCAASGSIFIYYAMGWYRQAPGKQRELVAGINFNGGSTYYADSVKGRFTISRDNAMYTVYVQMNSLKPEDTAVYYCAADELWWTYWDFVTNWYQRDYWGQGTQVTVSS | low polyreactivity
QDQLVESRGALVQAGGSLRLSCAASGIIFGRNAMGWYRQAPRKERELVAGITRRGARTYYADSVKGRFTISRDNAKNTVYFQMNILKPEDTAVYYCAAVGPYRWYDYWGQGTQVTVSS | high polyreactivity
QVQLVESGGGLVQAGGSLRLSCAASGFIFSSYAMGWYRQAPGKESELVAAITSGGSTNYADSVKGRFTISRDNAKNTVYLQMNSLKPEDTADYYCATLPGGSWFFHWWSTGGDDEYWGQGTQVTVSS | low polyreactivity
QVQLEESGGGLVQAGGSLRLSCAATGLIFRTYAMGWYRQAPGKERELVAAISYSGGSTFYADSVNGRFTISRDNAKNTVYLQMNRLKPEDTAVYYCAADSRAKRYYWGQGTQVTVSS | high polyreactivity
QVQLVESRWRFVQAGGSLRLSCAASGSIFADYAMGWYRQATGKERELVAAITFSGGSTYYADSVKGRFTISRDNENNTVYLQMNSLKPEDTAVYYCAARWRYRYYSWGQGTQVTVSS | high polyreactivity
RVQLQESGGGLVQAGGSLRLSCAASGTIFNRGDMGWYRQAPGKEREFVATIDTGSNTYYADSEKGPFTISRDNAKNAVYLQMNCLKPGATAVYYCVVDYQLSGRLRYWGQGTQVTLSS | low polyreactivity
QVQLVESGAGLVQAGGSLRLSCAASGITFASYGMGWYRQAPGKERELVAAISQRGGRTYYADSVKGRFTISRDNAKNTVYLQMNRLKPEDTAVYYCAARTYTITGRSPQYLNAYGYWGQGTQVTVSS | high polyreactivity
QVQLVESGGGLVQAGGSLRLSCAASGIIFGRNVMGWYRQAPGKERELVAAITRRGVNTYYADSVKGRFTISRDNAKNTVYLQMNSLKPEDTAVYYCAATWWQYDQGLHRYDYWGQGTQVTVSS | high polyreactivity

Sequence | polyreactivity (PSR sort gate)
QVQLVESGGGLVQARGSLRLSCAASGRIFVRKAMGWYRQAPGKERELVASISTSSGSTYYADSVKGRFTISRDNAKNTVYLQMNSLTPEVTAVYYCNAGYHFVHWPHVKHKKFDYWGQGTQVTVSS | low polyreactivity
QVQLVESGGGLVQAGGSLRLSCAASGRTFGSYAMGWYRQAPGKEREFVAAIYYGGGRTYYADSVKGRFSISRDNAKNTVYLQMNSLKAVDTAVYYCAADGVYRYNYPYLYTYDYWGQGTQVTVSS | low polyreactivity
QVQLVESVGGLVQAGGSLRLSCAASGSIFVTNAMGWYRQAPGKERELVAAISSGGNTNYADSVKGRFTISRDNAKNTVYLQMNSRKPEDTAVYYCAKDPDKVDYVDMDYWGQGTQVTVSS | low polyreactivity
QVQLVESGGGLVQAGGSLRLSCAASGFTSGYNAMGWYRQAPGKERELVATITRGTRTYYADSVKGRFTISRDNAKNTVYLQMNSLKPEDTAVYYCNARVYYKTYGGYYSWGQGTQVTVSS | high polyreactivity
QVQLVESGGGLVQAGGSLRLSCAASGSIYYNAMGWYRQAPGKERELVAGITWSGGSTYYADSVKGRFTISRDNAKNTVYLQMNSLKPEDTAVYYCAADFVYLGTHYGAYDYWGQGTQVTVSS | low polyreactivity
QVQLVESGGGLVQAGGSLRLSSAGSGRTFLANAMGWYRQAPGKEREFVAAIDWRTGSTYYADSVKGRFTISRDNAKNTVYLLMNSLKPEDTAVYYCAKDSSSYYYAHFYDWGQGTQVTVSS | high polyreactivity
KVQLVESGGGLVQAGGSLRLSCAASGSIFTFNAMGWYRQAPGKERELVAAIRWSSGRTYYADSVKGRFTISRDNAKNTVYLQMNSLKPEDTAVYFCAAKDFGSFYESGYDYWGQGTQVTVSS | high polyreactivity
QVQLVESGGGLVQAGGSLRLSCAASGLIFVANAMGWYRQAPGKERELVAAISRSGGITYYADSVKGRFTISRDNAKNTVYLQMNSLKPQDTAVYYCAKTLPSNGHYDYWGQGTQVTVSS | low polyreactivity
QVQLVESGGGLVQAGGSLRLSCAASGNIFPRYAMGLYRQAPGKERELVAAITWRTSSTYYADSVKGRFTISRDNAKNTVYLQMNSLKPEDTAVYFCAKTSSRIAGEYWGQGTQVTVSS | low polyreactivity
QVQLVESGGGLVQAGGSLRLSCAASGRIFWHNAMGWYRQAPGQERELVAAITGGGSTYYADSVKGRFSISRDDAKNTVYLQMNSLKPEDTAVYYCATLGSLRYYWPGYDYWGQGTQVTVSS | low polyreactivity
QVQLVESGGGLVQAGGSLRLSCAASGRIFVVYAMGWYRQAPGKERELVAAITSSGNTNYADSVKGRFTISRDNAKNTVYLQMNSLKPEDTAVYYCAATRDYSSDYWGQGTEVTVSS | low polyreactivity
QVQLVESGGGLVQAGGSLRLSCAASGSIFYDYAMGWYRQAPGKERELVAAINSGDSTYYADSVKGRFTISRDNAKNTVYLQMNSLKPEDTAVYYCAATYFSPYIEYDYWGQGTQVTVSS | low polyreactivity
QVQLVESGGRLVQAGGSLRLSCAASGSTIAYNAMGWYIQAPGKERELVAANSKGGGSTYYADSVKGRFTISRDNAQNTVYLAMNSLKPAETAVYYCAAVSGYSTGGSRYRYNYWGQGTQVTVSS | high polyreactivity
QVQLVESGGGLVQAGGSLRLSCAASGRTFGVYAMGWYRQAPGKERELVADITSGGGTYYADSVKGRFTILRDNAKNTVYLQMNSLKPEDTAVYYCAARKWYYAYDYWGQGTQVTVSS | high polyreactivity
QVQLVESGGGLVQAGGSLRLSCAASGRIFFRNAMGWYRQAPGKERELVAAITYSGGSTYYADSVKGRFTISRDNAKNTVYFQMNSLKPEDTAVYYCYADYYPYGEYDYWGQGTQVTVSS | high polyreactivity
QVQLQESAGLVQAGGLRLSCAASGSVSYQEAMGWYRQAPGKERELVATMSFGANTNYADSVKVRFTISRDNAKNTVYLQMNSLKPEETAVYYCAAESLFDDYYGYWGQGTQVTVSS | low polyreactivity
QVQLVESGGGLVQAGGSLRLSCAASGRIIYPNAIGWYRQAPGKERELVAGITSRGGSTYYADSVKGRFTSSRDNAKNTVYLQMNSLKPEDTAVYYCAKRYYYFYPDYDYWGQGTQVTVSS | high polyreactivity
QVQLVESGGGLVQAGGSLRLSCAASGRTFVPYAMGWYRQAPGKERELVAAISARGSSTYYADSVKGRFTISRDNAKNTVYLQMNSLKPEDTAVYYCNAVGARVASATGMEYWGQGTQVTVSS | high polyreactivity
QVQLEESGGGLVQAGGSLRLSCAASGSTFRANAMGWYRQAPGKERELVAAISSGDSTNYADSVKGRFTISRDNAKNTVYLQMNSLKPEDTAVYYCAAVYTYYWWGSYGFWGQGTQVTVSS | low polyreactivity
QVQLVESGGGLVQAGGSLRLSCAASGRIFTRNAMGWYRQAPGKERELVAAISGTGGSTYYADSVKGRFTISRDNAKNTVYLQMNSLKPEDTAVYYCAASRARTRSAYNYWGQGTQVTVSS | high polyreactivity
QVQIVESGGGLVQAGGSLRLSCAASGRTFRTYAMGWSRPAPGKEREMVAAIRSNAGSTYYADSVKGRFTISRDNAKNTVYLQMHSLKPEDTAVYYCAKSYRSSRRYNYWGQGTQVTVSS | high polyreactivity
